Experimental data: US20050147602

What was measured:
[1] = system: His-tagged CTHRC1 expressed in Chinese hamster ovary cells (CHO)
[2] = system: myc-tagged CHO cell-expressed CTHRC1

Substance: highly purified bacterial collagenase (VII, Sigma)
- cleavage of CTHRC1 (immunoblot after digestion) [1]: highly purified bacterial collagenase (Sigma) (FIG. 30), as well as MMP-1 (FIG. 31) cleave CTHRC1 near the N terminus

Substance: MMP-7
- cleavage of CTHRC1 (immunoblot after digestion) [2]: MMP-7 and thrombin do not cleave CTHRC1

Substance: matrix metalloprotease 1 (MMP-1)
- cleavage of CTHRC1 (immunoblot after 15 and 60 minutes digest) [2]: MMP-1 (FIG. 31) cleave CTHRC1 near the N terminus

Substance: thrombin
- cleavage of CTHRC1 (immunoblot after digestion) [2]: MMP-7 and thrombin do not cleave CTHRC1
